US20210347869A1 (UNIVERSITY OF QUEENSLAND, published 2021)

Columns and labels:
full-length human tau [1] = target: T1, full-length human tau (human, UniProt P10636 2-757); test: SPR (Biacore S200), single-cycle, biotinylated antibody captured on streptavidin chip, tau as analyte, steady state affinity fit; IgG1 format
T1 construct: also called tau441; human tau isoform 2
Method: (§1) (C) Single-cycle kinetics of AB1 to full-length human tau was determined using surface plasmon resonance. […] (D) The molecular weight (MW), binding affinity (KD) and activity for each of the AB1 antibody formats.
(§2) Surface plasmon resonance measurements were conducted at the Monash Fragment Platform, Monash University, using the Biacore S200 biosensor (GE Healthcare). Biotinylated AB1 was captured on a streptavidin-coated CM5 chip. For biotinylation, AB1 IgG1 (29.5 μM), AB1 IgG2a (32.0 μM), AB1 Fab (22.9 μM) and AB1 scFv (60.4 μM) (in 137 mM NaCl, 2.7 mM KCl, 10 mM Na2HPO4, 1.8 mM KH2PO4) was added in a 1:1 ratio with EZ-link NHS-LC-LC-biotin (Thermo Scientific) and incubated at 25° C. for 1 hr. Antibodies were separated from free-unconjugated biotin using size-exclusion chromatography on a Superdex 200 10/300 GL (GE Healthcare) or Superdex 75 10/300 Increase (GE Healthcare) equilibrated in 137 mM NaCl, 2.7 mM KCl, 12 mM Na2HPO4, 1.8 mM KH2PO4, pH 7.4. Streptavidin was immobilized on the CM5 chip using amine coupling at 37° C. […]

full-length human tau [2] = target: T1, full-length human tau; test: SPR (Biacore S200), single-cycle, biotinylated antibody captured on streptavidin chip, tau as analyte, steady state affinity fit; IgG2a format
Method: as §1, §2

full-length human tau [3] = target: T1, full-length human tau; test: SPR (Biacore S200), single-cycle, biotinylated Fab captured on streptavidin chip, tau as analyte, steady state affinity fit; Fab, not IgG
Method: as §1, §2

T1 sequence (P10636 other isoform, or with tags, fused parts or gaps limits assumed): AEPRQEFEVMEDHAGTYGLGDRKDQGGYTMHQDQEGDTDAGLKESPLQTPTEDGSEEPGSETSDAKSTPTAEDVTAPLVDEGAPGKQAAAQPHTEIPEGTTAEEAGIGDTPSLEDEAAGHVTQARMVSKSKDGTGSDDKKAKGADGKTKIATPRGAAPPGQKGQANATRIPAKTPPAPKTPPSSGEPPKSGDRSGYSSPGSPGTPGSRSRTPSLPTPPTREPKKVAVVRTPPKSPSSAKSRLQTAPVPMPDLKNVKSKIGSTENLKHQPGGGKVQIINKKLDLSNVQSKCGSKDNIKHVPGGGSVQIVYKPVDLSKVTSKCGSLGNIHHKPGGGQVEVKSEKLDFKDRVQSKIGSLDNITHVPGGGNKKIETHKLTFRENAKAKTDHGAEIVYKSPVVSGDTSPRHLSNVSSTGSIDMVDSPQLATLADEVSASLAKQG

B1: AB1 IgG1 (antibody, V domains shown)
VH: QVQLKQSGPGLVQPSQSLSITCTVSGFSLTSYGVHWVRQSPGKGLEWLGVIWRGGSTDYNAAFMSRLSITKDNSKSQVFFKMNSLQADDTAIYYCAKNTNHRYDGYYAMDYWGQGTSVTVS
VL: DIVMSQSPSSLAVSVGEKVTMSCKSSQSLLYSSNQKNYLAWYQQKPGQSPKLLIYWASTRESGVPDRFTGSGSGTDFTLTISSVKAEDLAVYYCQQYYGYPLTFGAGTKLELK
notes: Expressed in Expi-CHO, about 156 kDa; For SPR it was biotinylated with NHS-LC-LC-biotin and captured on streptavidin; also called full-sized murine IgG1
For B1, the Kd (full-length human tau [1]) was 407 nM.

B2: AB1 IgG2a (antibody, V domains shown)
VH: QVQLKQSGPGLVQPSQSLSITCTVSGFSLTSYGVHWVRQSPGKGLEWLGVIWRGGSTDYNAAFMSRLSITKDNSKSQVFFKMNSLQADDTAIYYCAKNTNHRYDGYYAMDYWGQGTSVTVS
VL: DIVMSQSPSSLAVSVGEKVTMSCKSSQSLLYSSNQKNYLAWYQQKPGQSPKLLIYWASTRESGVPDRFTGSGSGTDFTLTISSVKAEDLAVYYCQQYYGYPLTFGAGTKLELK
notes: About 156 kDa; Biotinylated and captured on streptavidin for SPR; also called full-sized murine IgG2a
B2 gave a Kd (full-length human tau [2]) of 381 nM.

B3: AB1 Fab (Fab, V domains shown)
VH: QVQLKQSGPGLVQPSQSLSITCTVSGFSLTSYGVHWVRQSPGKGLEWLGVIWRGGSTDYNAAFMSRLSITKDNSKSQVFFKMNSLQADDTAIYYCAKNTNHRYDGYYAMDYWGQGTSVTVS
VL: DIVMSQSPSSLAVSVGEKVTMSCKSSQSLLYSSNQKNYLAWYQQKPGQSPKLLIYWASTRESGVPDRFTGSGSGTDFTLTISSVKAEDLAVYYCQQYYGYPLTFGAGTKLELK
notes: Biotinylated and captured on streptavidin for SPR
B3 gave a Kd (full-length human tau [3]) of 298 nM.
